These are literature values, as cited in paper PMC6997106.

As a reminder, the Kd is the concentration at which binding is half-saturated.

The series deals with RAGE V-domain V-domain (Homo sapiens) (UniProt Q15109). Briefly: SPR. (In general: SPR reads the build-up and loss of mass on a sensor chip optically.)
Sequence of RAGE V-domain V-domain (Homo sapiens) (Q15109 23-116): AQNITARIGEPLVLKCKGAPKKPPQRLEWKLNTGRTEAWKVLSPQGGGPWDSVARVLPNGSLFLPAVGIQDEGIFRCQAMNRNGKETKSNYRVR

Sequence of S100B (P04271 2-92): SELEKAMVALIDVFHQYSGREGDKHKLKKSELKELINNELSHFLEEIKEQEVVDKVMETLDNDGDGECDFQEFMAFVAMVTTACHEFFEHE

In the case of S100B (from UniProt P04271), the dissociation constant (Kd) is 500 nM.
